Binding result and Kd data for five molecules are collected here from EP4703474A1, “ANTI-LRRC15 ANTIBODY” (priority 2023, dated 2024).

The target in assay [1] is T1, human LRRC15 (full-length, on cells) (human, UniProt Q8TF66 22-581).
T1 construct: also called hLRRC15; endogenous LRRC15 of Hs294T
T1 sequence: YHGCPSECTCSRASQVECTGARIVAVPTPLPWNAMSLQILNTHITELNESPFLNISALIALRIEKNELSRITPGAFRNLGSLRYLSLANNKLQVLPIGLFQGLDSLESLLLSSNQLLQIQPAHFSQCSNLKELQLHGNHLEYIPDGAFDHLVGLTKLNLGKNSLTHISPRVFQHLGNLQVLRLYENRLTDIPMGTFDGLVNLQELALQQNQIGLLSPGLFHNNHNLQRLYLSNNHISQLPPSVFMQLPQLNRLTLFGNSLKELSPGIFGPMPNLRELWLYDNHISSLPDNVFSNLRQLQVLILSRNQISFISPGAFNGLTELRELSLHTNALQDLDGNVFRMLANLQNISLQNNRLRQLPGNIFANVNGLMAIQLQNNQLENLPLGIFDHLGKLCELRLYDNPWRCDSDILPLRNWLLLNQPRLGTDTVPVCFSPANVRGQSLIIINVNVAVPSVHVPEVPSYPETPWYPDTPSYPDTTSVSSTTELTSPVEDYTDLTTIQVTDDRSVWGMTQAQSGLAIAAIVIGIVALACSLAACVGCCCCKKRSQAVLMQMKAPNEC
Description: flow cytometry, endogenous LRRC15 on human melanoma line Hs294T. In general terms: A flow cytometer gives signals particle by particle.

For assay [2], the target named is T2, human LRRC15 extracellular domain expressed on HEK293α (pDisplay-hLRRC15 ECD) (human, UniProt Q8TF66 22-538).
T2 construct: also called WT; human LRRC15 wild-type
T2 sequence: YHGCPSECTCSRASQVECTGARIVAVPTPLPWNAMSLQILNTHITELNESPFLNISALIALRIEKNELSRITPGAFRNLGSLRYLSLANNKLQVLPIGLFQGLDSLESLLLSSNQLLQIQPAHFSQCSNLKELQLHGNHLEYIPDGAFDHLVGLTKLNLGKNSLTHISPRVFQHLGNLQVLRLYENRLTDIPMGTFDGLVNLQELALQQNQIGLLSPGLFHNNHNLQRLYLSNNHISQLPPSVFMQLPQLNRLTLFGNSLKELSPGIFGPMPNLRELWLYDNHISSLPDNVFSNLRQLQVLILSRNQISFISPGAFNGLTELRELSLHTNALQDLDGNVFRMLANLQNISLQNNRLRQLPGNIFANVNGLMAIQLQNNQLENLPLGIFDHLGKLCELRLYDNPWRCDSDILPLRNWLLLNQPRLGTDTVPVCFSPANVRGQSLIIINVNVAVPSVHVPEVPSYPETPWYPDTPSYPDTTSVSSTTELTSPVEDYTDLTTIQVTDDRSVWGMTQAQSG
Put plainly: flow cytometry, HEK293α expressing WT human LRRC15 ECD.

The target in assay [3] is T3, cynomolgus monkey LRRC15 extracellular domain expressed on HEK293α (pDisplay-cynoLRRC15 ECD) (cynomolgus monkey, UniProt Q8TF66 22-538 (human entry)).
T3 construct: vector-derived parts not described
T3 chain: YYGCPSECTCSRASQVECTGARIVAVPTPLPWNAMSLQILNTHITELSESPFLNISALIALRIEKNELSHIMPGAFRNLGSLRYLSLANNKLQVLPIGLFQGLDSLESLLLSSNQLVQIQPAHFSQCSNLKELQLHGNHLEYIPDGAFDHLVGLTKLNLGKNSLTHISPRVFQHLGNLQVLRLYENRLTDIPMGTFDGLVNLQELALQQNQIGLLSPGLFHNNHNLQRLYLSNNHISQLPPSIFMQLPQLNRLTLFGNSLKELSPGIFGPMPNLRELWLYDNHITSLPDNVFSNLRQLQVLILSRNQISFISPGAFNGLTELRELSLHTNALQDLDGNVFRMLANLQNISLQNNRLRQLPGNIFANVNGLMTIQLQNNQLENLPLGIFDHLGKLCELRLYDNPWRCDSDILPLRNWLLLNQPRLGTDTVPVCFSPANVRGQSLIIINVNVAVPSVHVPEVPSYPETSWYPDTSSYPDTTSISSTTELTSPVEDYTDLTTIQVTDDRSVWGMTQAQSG
Description: flow cytometry, transfected HEK293α, 10 µg/mL.

In a further assay the target is T4, human LRRC15-His protein (human, UniProt Q8TF66 22-538).
T4 construct: Recombinant, expressed in mammalian cells; also called human LRRC15 antigen; hLRRC15-His
T4 sequence: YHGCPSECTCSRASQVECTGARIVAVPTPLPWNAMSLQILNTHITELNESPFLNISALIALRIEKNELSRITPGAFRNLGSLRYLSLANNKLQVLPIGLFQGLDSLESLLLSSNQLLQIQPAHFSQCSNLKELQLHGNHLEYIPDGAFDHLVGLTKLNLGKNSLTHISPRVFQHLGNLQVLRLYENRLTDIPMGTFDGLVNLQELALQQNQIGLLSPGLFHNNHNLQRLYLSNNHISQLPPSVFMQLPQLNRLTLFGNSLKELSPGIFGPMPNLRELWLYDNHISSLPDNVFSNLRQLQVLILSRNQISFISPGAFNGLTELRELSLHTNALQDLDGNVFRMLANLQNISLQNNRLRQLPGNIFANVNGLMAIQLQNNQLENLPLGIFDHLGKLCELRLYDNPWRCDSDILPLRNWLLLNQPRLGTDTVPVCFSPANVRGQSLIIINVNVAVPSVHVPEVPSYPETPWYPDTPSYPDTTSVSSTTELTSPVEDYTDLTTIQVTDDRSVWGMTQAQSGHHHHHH
Description: SPR, Biacore T200; antibody captured by anti-human IgG (Fc), human LRRC15-His as analyte, 1:1 model.

Assay [4] deals with T2, human LRRC15 extracellular domain …. Description: flow cytometry, transfected HEK293α, 10 µg/mL.
Assay [5] has as its target T1, human LRRC15 (full-length, on cells). Put plainly: Cell-ELISA, hybridoma supernatant on HEK293α transfected with pcDNA3.1-hLRRC15.

B1: H02L01 antibody (antibody, human IgG1, kappa, L234A L235A, V domains shown)
VH: EVQLVESGGGLVQPGGSLRLSCAASGFTFRDYYMAWVRQAPGKGLEWVSSIGFDESRTYYADSVKGRFTISRDDSKNTLYLQMNSLRAEDTAVYYCARHGVSYYSGDNWFAYWGQGTLVTVSS
VL: DIQMTQSPSSLSASVGDRVTITCKSSQGLLYSGDQKNYLAWYQQKPGKAPKLLIYWASTRQSGVPSRFSGSGSGTDFTLTISSLQPEDFATYYCQQYYDPPYTFGQGTKVEIKR
notes: Humanized anti-LRRC15 antibody, human IgG1 / kappa; also called hR024 (hR024 H02 + hR024 L01)
B1: the binding result in assay [1], in assay [2] and in assay [3] was “binds” throughout.

B2: H02L01-V1 antibody (antibody, human IgG1, kappa, L234A L235A, V domains shown)
VH: EVQLVESGGGLVQPGGSLRLSCAASGFTFRDYYMAWVRQAPGKGLEWVSSIGFDESRTYYADSVKGRFTISRDDSKNTLYLQMNSLRAEDTAVYYCARHGVSKYSGDNWFAYWGQGTLVTVSS
VL: DIQMTQSPSSLSASVGDRVTITCKSSQGLLYSGDQKNYLAWYQQKPGKAPKLLIYWASTRQSGVPSRFSGSGSGTDFTLTISSLQPEDFATYYCQQYYDPPYTFGQGTKVEIKR
notes: Humanized anti-LRRC15 antibody, human IgG1 / kappa; also called hR024 (hR024 H02-V1 + hR024 L01)
Broadly, the Kd is a measure of binding affinity in units of concentration. Molecule B2 registered a Kd with human LRRC15-His protein of 59.9 nM. Also, the binding result in assay [3] was “binds”.

B3: H02L01-V2 antibody (antibody, human IgG1, kappa, L234A L235A, V domains shown)
VH: EVQLVESGGGLVQPGGSLRLSCAASGFTFRDYYMAWVRQAPGKGLEWVSSIGFDESRTYYADSVKGRFTISRDDSKNTLYLQMNSLRAEDTAVYYCARHGVSRYSGDNWFAYWGQGTLVTVSS
VL: DIQMTQSPSSLSASVGDRVTITCKSSQGLLYSGDQKNYLAWYQQKPGKAPKLLIYWASTRQSGVPSRFSGSGSGTDFTLTISSLQPEDFATYYCQQYYDPPYTFGQGTKVEIKR
notes: Humanized anti-LRRC15 antibody, human IgG1 / kappa; also called hR024 (hR024 H02-V2 + hR024 L01)
In the case of B3, the binding result in assay [1], in assay [3] and in assay [4] was “binds” in each case.

B4: H09L03 antibody (antibody, human IgG1, kappa, L234A L235A, V domains shown)
VH: EVQLVESGGGLVQPGGSLRLSCAASGFTFRDYYMAWVRQAPGKGLEWVASIGFDESRTYYADSVKGRFTISRDDSKSTLYLQMNSLRAEDTAVYYCTRHGVSYYSGDNWFAYWGQGTLVTVSS
VL: DIQMTQSPSSLSASVGDRVTITCKSSQGLLYSGDQKNYLAWYQQKPGKSPKLLIYWASTRQSGVPDRFSGSGSGTDFTLTISSLQPEDFATYYCQQYYDPPYTFGQGTKVEIKR
notes: Humanized anti-LRRC15 antibody, human IgG1 / kappa; also called hR024 (hR024 H09 + hR024 L03)
Take B4: the binding result in assay [1], in assay [3] and in assay [4] was “binds” each time.

B5: rR024 antibody (antibody, rat IgG2b, V domains shown)
VH: EVQLVESNGALVQPGRSLKLSCAASGFTFRDYYMAWVRQAPSKGLEWVASIGFDESRTYYRDSVKGRFTISRDDVKSTLYLQLDSLRSEDTATYYCTRHGVSYYSGDNWFAYWGQGALVIVSS
VL: DIVMTQSPSSLAVSAGETVIINCKSSQGLLYSGDQKNYLAWYQQKPGQSPKLLIYWASTRQSGVPDRFIGSGSGTDFTLTISSVQGEDLAIYYCQQYYDPPYTFGAGTKLELKR
notes: Rat monoclonal antibody from hybridoma culture supernatant; rat IgG2b, kappa light chain; also called clone rR024
Take B5: in assay [5], the binding result was “binds”.
